B1: scFv; the commonest letter at each place (parent)
chain 1: EVKLDETGGGLVQPGRPMKLSCVASGFTFSDYWMNWVRQSPEKGLEWVAQIRNKPYNYETYYSDSVKGRFTISRDDSKSSVYLQMNNLRVEDMGIYYCTGSYYGMDYWGQGTSVTVS
chain 2: DVVMTQTPLSLPVSLGDQASISCRSSQSLVHSNGNTYLRWYLQKPGQSPKVLIYKVSNRFSGVPDRFSGSGSGTDFTLKISRVEAEDLGVYFCSQSTHVPWTFGGGTKLEIK

Variants of B1 are the subject of series [1]. The series is described as follows: Kd (Tite-Seq). To be noted: with fluorescein; format: scFv 4-4-20, heavy + light.
In series [2] the parent is B1. Briefly: yeast surface expression (ratio to wild type); higher = more expressed. As to conditions: format: scFv 4-4-20, heavy + light.

One may read the Kd as the constant that tells how readily two partners part at equilibrium. Turning to chain 1 EVKLDETGGGLVQPGRPMKLSCVASGFSFIDYWMNWVRQSPEKGLEWVAQIRNKPYNYETYYSDSVKGRFTISRDDSKSSVYLQMNNLRVEDMGIYYCTGSYYGMDYWGQGTSVTVS chain 2 DVVMTQTPLSLPVSLGDQASISCRSSQSLVHSNGNTYLRWYLQKPGQSPKVLIYKVSNRFSGVPDRFSGSGSGTDFTLKISRVEAEDLGVYFCSQSTHVPWTFGGGTKLEIK [chain 1 T28S S30I], the Kd in series [1] stood at 7.08 nM. Besides, the yeast surface expression in series [2] is 0.741.
For the variant chain 1 EVKLDETGGGLVQPGRPMKLSCVASGFSFMDYWMNWVRQSPEKGLEWVAQIRNKPYNYETYYSDSVKGRFTISRDDSKSSVYLQMNNLRVEDMGIYYCTGSYYGMDYWGQGTSVTVS chain 2 DVVMTQTPLSLPVSLGDQASISCRSSQSLVHSNGNTYLRWYLQKPGQSPKVLIYKVSNRFSGVPDRFSGSGSGTDFTLKISRVEAEDLGVYFCSQSTHVPWTFGGGTKLEIK [chain 1 T28S S30M], the Kd in series [1] amounted to 1.75 nM. Further, the yeast surface expression in series [2] stood at 0.95.
Consider chain 1 EVKLDETGGGLVQPGRPMKLSCVASGFSFRDYWMNWVRQSPEKGLEWVAQIRNKPYNYETYYSDSVKGRFTISRDDSKSSVYLQMNNLRVEDMGIYYCTGSYYGMDYWGQGTSVTVS chain 2 DVVMTQTPLSLPVSLGDQASISCRSSQSLVHSNGNTYLRWYLQKPGQSPKVLIYKVSNRFSGVPDRFSGSGSGTDFTLKISRVEAEDLGVYFCSQSTHVPWTFGGGTKLEIK [chain 1 T28S S30R], for which the Kd in series [1] came out at 2.65 nM. The yeast surface expression in series [2] came out at 0.787.
The matching figures for chain 1 EVKLDETGGGLVQPGRPMKLSCVASGFSFTDYRMNWVRQSPEKGLEWVAQIRNKPYNYETYYSDSVKGRFTISRDDSKSSVYLQMNNLRVEDMGIYYCTGSYYGMDYWGQGTSVTVS chain 2 DVVMTQTPLSLPVSLGDQASISCRSSQSLVHSNGNTYLRWYLQKPGQSPKVLIYKVSNRFSGVPDRFSGSGSGTDFTLKISRVEAEDLGVYFCSQSTHVPWTFGGGTKLEIK [chain 1 T28S S30T W33R]: at least 10000 nM and 0.708.
Turning to chain 1 EVKLDETGGGLVQPGRPMKLSCVASGFSFSDYWMNWVRQSPEKGLEWVAQIRNKPYNYETYYSDSVKGRFTISRDDSKSSVYLQMNNLRVEDMGIYYCTGSYYGMDYWGQGTSVTVS chain 2 DVVMTQTPLSLPVSLGDQASISCRSSQSLVHSNGNTYLRWYLQKPGQSPKVLIYKVSNRFSGVPDRFSGSGSGTDFTLKISRVEAEDLGVYFCSQSTHVPWTFGGGTKLEIK [chain 1 T28S], the Kd in series [1] worked out at 3.25 nM. Also, in series [2], the yeast surface expression came out at 0.985.
Turning to chain 1 EVKLDETGGGLVQPGRPMKLSCVASGFSFSDYWMNWQRQSPEKGLEWVAQIRNKPYNYETYYSDSVKGRFTISRDDSKSSVYLQMNNLRVEDMGIYYCTGSYYGMDYWGQGTSVTVS chain 2 DVVMTQTPLSLPVSLGDQASISCRSSQSLVHSNGNTYLRWYLQKPGQSPKVLIYKVSNRFSGVPDRFSGSGSGTDFTLKISRVEAEDLGVYFCSQSTHVPWTFGGGTKLEIK [chain 1 T28S V37Q], the dissociation constant (Kd) in series [1] was 1.84 nM. Further, the yeast surface expression in series [2] was 0.71.
Regarding chain 1 EVKLDETGGGLVQPGRPMKLSCVASGFSFSDYWNNWVRQSPEKGLEWVAQIRNKPYNYETYYSDSVKGRFTISRDDSKSSVYLQMNNLRVEDMGIYYCTGSYYGMDYWGQGTSVTVS chain 2 DVVMTQTPLSLPVSLGDQASISCRSSQSLVHSNGNTYLRWYLQKPGQSPKVLIYKVSNRFSGVPDRFSGSGSGTDFTLKISRVEAEDLGVYFCSQSTHVPWTFGGGTKLEIK [chain 1 T28S M34N], the Kd in series [1] is at least 10000 nM. Further, the yeast surface expression in series [2] stood at 0.645.
Take chain 1 EVKLDETGGGLVQPGRPMKLSCVASGFSFSDYWRNWVRQSPEKGLEWVAQIRNKPYNYETYYSDSVKGRFTISRDDSKSSVYLQMNNLRVEDMGIYYCTGSYYGMDYWGQGTSVTVS chain 2 DVVMTQTPLSLPVSLGDQASISCRSSQSLVHSNGNTYLRWYLQKPGQSPKVLIYKVSNRFSGVPDRFSGSGSGTDFTLKISRVEAEDLGVYFCSQSTHVPWTFGGGTKLEIK [chain 1 T28S M34R]: in series [1], the Kd is at least 10000 nM. In addition, in series [2], the yeast surface expression amounted to 1.99.
Take chain 1 EVKLDETGGGLVQPGRPMKLSCVASGFSQSDYWMNWVRQSPEKGLEWVAQIRNKPYNYETYYSDSVKGRFTISRDDSKSSVYLQMNNLRVEDMGIYYCTGSYYGMDYWGQGTSVTVS chain 2 DVVMTQTPLSLPVSLGDQASISCRSSQSLVHSNGNTYLRWYLQKPGQSPKVLIYKVSNRFSGVPDRFSGSGSGTDFTLKISRVEAEDLGVYFCSQSTHVPWTFGGGTKLEIK [chain 1 T28S F29Q]: the Kd in series [1] worked out at 6.38 nM. Also, in series [2], the yeast surface expression was determined as 0.969.
For the variant chain 1 EVKLDETGGGLVQPGRPMKLSCVASGFSSSDYWMNWVRQSPEKGLEWVAQIRNKPYNYETYYSDSVKGRFTISRDDSKSSVYLQMNNLRVEDMGIYYCTGSYYGMDYWGQGTSVTVS chain 2 DVVMTQTPLSLPVSLGDQASISCRSSQSLVHSNGNTYLRWYLQKPGQSPKVLIYKVSNRFSGVPDRFSGSGSGTDFTLKISRVEAEDLGVYFCSQSTHVPWTFGGGTKLEIK [chain 1 T28S F29S], in series [1], the Kd was found to be 26.9 nM. Also, the yeast surface expression in series [2] amounted to 1.17.
For chain 1 EVKLDETGGGLVQPGRPMKLSCVASGFSASDYWMNWVRQSPEKGLEWVAQIRNKPYNYETYYSDSVKGRFTISRDDSKSSVYLQMNNLRVEDMGIYYCTGSYYGMDYWGQGTSVTVS chain 2 DVVMTQTPLSLPVSLGDQASISCRSSQSLVHSNGNTYLRWYLQKPGQSPKVLIYKVSNRFSGVPDRFSGSGSGTDFTLKISRVEAEDLGVYFCSQSTHVPWTFGGGTKLEIK [chain 1 T28S F29A], the dissociation constant (Kd) in series [1] came out at 62.4 nM. For the same variant, in series [2], the yeast surface expression came out at 0.957.
With chain 1 EVKLDETGGGLVQPGRPMKLSCVASGFSFSCYWMNWVRQSPEKGLEWVAQIRNKPYNYETYYSDSVKGRFTISRDDSKSSVYLQMNNLRVEDMGIYYCTGSYYGMDYWGQGTSVTVS chain 2 DVVMTQTPLSLPVSLGDQASISCRSSQSLVHSNGNTYLRWYLQKPGQSPKVLIYKVSNRFSGVPDRFSGSGSGTDFTLKISRVEAEDLGVYFCSQSTHVPWTFGGGTKLEIK [chain 1 T28S D31C], the Kd in series [1] was found to be 76.7 nM. Moreover, the yeast surface expression in series [2] came out at 0.771.

The record behind these values is the FLAb antibody collection (doi:10.7554/elife.23156).
